Assay results as given in patent publication US20110052525A1, “Breaking Immunological Tolerance with a Genetically Encoded Unnatural Amino Acid” (THE SCRIPPS RESEARCH INSTITUTE, priority 2008, published 2011).

What was measured:
mRBP4 = target: T1, mRBP4 (Mus musculus, UniProt Q00724); experiment: Serum IgG titers by ELISA after RIMMS immunization of mice with mRBP4 variants; assay type: in vivo
T1 construct: The cDNA encoding murine RBP4 (aa 19-201); made in house; host or cells: E. coli BL21(DE3)
Description: 30 μl of 0.5 μg/ml protein was used to coat the wells of Maxisorp 384-well plates (Nunc, Rochester, N.Y.) overnight at 4° C. After washing with PBS+0.05% Tween 20 (PBST), the coated plates were blocked with 80 μl of 1% BSA in PBS, and washed again with PBST. The plates were sequentially incubated with 20 μl of primary antibody or serum diluted in 1% BSA in PBS, 20 μl of HRP-conjugated goat anti-mouse IgG or anti-mouse IgM (Jackson ImmunoResearch Laboratories, West Grove, Pa.), and 20 μl of TMB substrate (KPL, Gaithersburg, Md.), and read at an absorbance of 650 nm. Between incubations, the plates were washed at least six times with PBST.
Before measurement, serum samples were diluted 1:1,000 with 1% BSA in PBS buffer.

[1] = TR-FRET retinol binding assay of mRBP4 proteins; settings: retinol binding affinity, Cy5-labeled retinol
Description: The binding affinities of mRBP4 proteins were determined by a TR-FRET retinol binding assay.
WT and pNO2Phe mRBP4 mutant proteins were labeled with biotin using the Sulfo-NHS-Biotin kit (Pierce, Rockford, Ill.) according to manufacturer instructions. For determination of retinol binding activity, 10 nM biotin-labeled RBP4 was mixed with 1 nM Streptavidin-Europium chelate (LANCE® Eu-W8044 Streptavidin, Perkin Elmer, Foster City, Calif.). Increasing concentrations of Cy5-labeled retinol were added to the reaction and retinol binding was assessed by homogeneous time-resolved fluorescence resonance energy transfer (TR-FRET).

## WT mRBP4: wild-type murine retinol binding protein 4
mRBP4; Bcl2 mice, RIMMS, ELISA (FIG. 19)
  serum IgG titers against WT mRBP4: insignificant serum IgG titers
mRBP4; C57BL/6 mice, ELISA (FIG. 26)
  serum IgG titers against WT mRBP4: insignificant serum IgG titers
[1]
  Kd: 171 nM
